Source: the supplement of paper PMC6757056
± gives the standard deviation of the averaged measurements.

B1: library; a variant is named by its letters at N, in order (parent)
chain: GCUGUCACCGAGAAACUGUGAAGUAUAUCUUAAACCUGGGCACUUAAAAGAUAUAUGGAGUUAGUAGUGCAACCUGCUCGGUCUGAUGAGUCCNNNNNNGGACGAAACAGC

Columns and labels:
cyclic di-GMP [1] = variants of: B1; assay: FACS-Seq fitted mean relative fluorescence mCherry/BFP without ligand (log10 relative fluorescence); HEK293T; ligand: cyclic di-GMP (c-di-GMP-II aptamer); higher = higher reporter protein expression; conditions: ligand present: no
Outline: (§1)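 Fluorescence is reported as a normalized fitted mean of sorted-bin read counts. Lentivirally transduced HEK293T libraries (mCherry ribozyme-switch reporter, EF1α-BFP marker) were enriched, treated with or without ligand for 48 h, and sorted into 6 mCherry/BFP bins for MiSeq sequencing of PCR-amplified genomic DNA. The normal fit was on log10(mCherry/BFP), scaled to five spiked-in control ribozymes.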

cyclic di-GMP [2] = variants of: B1; assay: normalized RNA/DNA level without ligand (relative to sTRSVctl = 100) (log10 (% of sTRSVctl)); HEK293T; ligand: cyclic di-GMP (c-di-GMP-II aptamer); higher = less ribozyme self-cleavage, higher mRNA level; conditions: reporter: mCherry (pCS4076), ligand present: no
Method: (§2)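 Hammerhead (sTRSV) ribozyme switch libraries with a ligand aptamer grafted on stem I and a randomized N4-6 loop II, cloned into the 3' UTR of mCherry and transiently transfected into HEK293T cells; RNA-Seq 72 h post transfection with ligand added 1 h before transfection; RNA read count / plasmid DNA read count normalized to the non-cleaving sTRSVctl (x100), log10; sequences with >100 DNA reads. FACS-Seq: lentiviral library sorted into 6 bins after 48 h ligand, log-normal fit mean of mCherry/BFP scaled to controls. Printed sequences are partial switch sequences.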

cyclic di-GMP [3] = variants of: B1; assay: FACS-Seq fitted mean relative fluorescence mCherry/BFP with ligand (log10 relative fluorescence); HEK293T; ligand: cyclic di-GMP (c-di-GMP-II aptamer); ligand concentration (+) FACS-Seq: 1 mM; higher = higher reporter protein expression; conditions: ligand present: yes
Outline: as §1

cyclic di-GMP [4] = variants of: B1; assay: normalized RNA/DNA level with ligand (relative to sTRSVctl = 100) (log10 (% of sTRSVctl)); HEK293T; ligand: cyclic di-GMP (c-di-GMP-II aptamer); ligand concentration (+) RNA-Seq: 1 mM; higher = less ribozyme self-cleavage, higher mRNA level; conditions: reporter: mCherry (pCS4076), ligand present: yes
Method: as §2

Variant	FACS-Seq fitted mean (log10) (cyclic di-GMP [1])	normalized RNA/DNA level without ligand (log10) (cyclic di-GMP [2])	FACS-Seq fitted mean (log10) (cyclic di-GMP [3])	normalized RNA/DNA level with ligand (log10) (cyclic di-GMP [4])
CCUAUA	-0.492 ± 0.012	1.43 ± 0.12	-0.121 ± 0.047	1.65 ± 0.067
CCGUAA	-0.4729 ± 0.0036	1.35 ± 0.17	-0.242 ± 0.019	1.57 ± 0.082
CCGUAU	-0.719 ± 0.038	1.5 ± 0.015	-0.441 ± 0.007	1.69 ± 0.16
ACGCAG	-0.51 ± 0.13	1.677 ± 0.0051	-0.377 ± 0.0065	1.81 ± 0.094
GCCGAC	-0.43 ± 0.062	1.48 ± 0.13	-0.145 ± 0.015	1.67 ± 0.089
GCCGAU	-0.47 ± 0.078	1.55 ± 0.034	-0.231 ± 0.064	1.74 ± 0.1
GCCGAA	-0.291 ± 0.03	1.45 ± 0.11	-0.0327 ± 0.018	1.72 ± 0.091
ACGUAU	-0.637 ± 0.067	1.34 ± 0.1	-0.336 ± 0.0036	1.54 ± 0.036
ACGUAA	-0.0329 ± 0.12	1.43 ± 0.079	0.314 ± 0.082	1.63 ± 0.087
GCGCAU	-0.0572 ± 0.14	1.66 ± 0.058	0.0686 ± 0.025	1.8 ± 0.11
CCGCUU	-0.424 ± 0.011	1.557 ± 0.013	-0.124 ± 0.0085	1.79 ± 0.076
UCGUAC	0.087 ± 0.015	1.653 ± 0.01	0.277 ± 0.023	1.81 ± 0.14
CCUCCU	-0.211 ± 0.0029	1.678 ± 0.011	0.278 ± 0.026	1.77 ± 0.098
CCUCCG	0.138 ± 0.023	1.769 ± 0.013	0.32 ± 0.035	1.87 ± 0.073
CCUCCC	-0.363 ± 0.069	1.81 ± 0.025	-0.153 ± 0.079	1.89 ± 0.12
CCGAUG	-0.912 ± 0.22	1.09 ± 0.038	-0.634 ± 0.095	1.32 ± 0.16
GCUAGA	-0.35 ± 0.031	1.49 ± 0.043	-0.116 ± 0.03	1.67 ± 0.099
ACCUCC	0.0782 ± 0.15	1.78 ± 0.055	0.281 ± 0.037	1.86 ± 0.15
GCUACG	0.0942 ± 0.14	1.58 ± 0.017	0.353 ± 0.045	1.72 ± 0.1
CCCGAA	-0.464 ± 0.055	1.39 ± 0.023	-0.0882 ± 0.039	1.64 ± 0.13
GCGUAU	-0.304 ± 0.056	1.48 ± 0.043	0.0112 ± 0.012	1.72 ± 0.12
GCGUAG	-0.637 ± 0.047	1.67 ± 0.074	-0.348 ± 0.095	1.8 ± 0.085
CCCUGC	-0.0175 ± 0.34	1.792 ± 0.0034	0.142 ± 0.079	1.9 ± 0.16
UCGAAA	-0.535 ± 0.0031	1.32 ± 0.069	-0.158 ± 0.043	1.58 ± 0.12

Variant	FACS-Seq fitted mean (log10) (cyclic di-GMP [1])	normalized RNA/DNA level without ligand (log10) (cyclic di-GMP [2])	FACS-Seq fitted mean (log10) (cyclic di-GMP [3])	normalized RNA/DNA level with ligand (log10) (cyclic di-GMP [4])
GCCGGU	0.00404 ± 0.21	1.63 ± 0.03	0.3204 ± 0.0024	1.79 ± 0.087
UCGCCA	0.132 ± 0.027	1.71 ± 0.032	0.335 ± 0.037	1.88 ± 0.073
CCGGGG	-0.589 ± 0.03	1.43 ± 0.022	-0.295 ± 0.011	1.62 ± 0.11
GCCGUG	-0.238 ± 0.056	1.6 ± 0.097	0.0457 ± 0.053	1.8 ± 0.06
GCUCGU	-0.452 ± 0.016	1.692 ± 0.015	-0.0822 ± 0.049	1.83 ± 0.038
UCGGUA	-0.583 ± 0.023	1.31 ± 0.18	-0.2658 ± 0.00058	1.52 ± 0.054
UCGGUC	-0.238 ± 0.16	1.675 ± 0.0093	0.0705 ± 0.033	1.83 ± 0.1
GCGAAU	-0.502 ± 0.029	1.45 ± 0.057	-0.149 ± 0.079	1.64 ± 0.14
ACGCGG	-0.429 ± 0.041	1.69 ± 0.034	-0.107 ± 0.078	1.8 ± 0.13
CCUGUA	-0.428 ± 0.0045	1.54 ± 0.15	-0.0267 ± 0.0096	1.73 ± 0.077
ACGUGA	-0.228 ± 0.016	1.33 ± 0.052	-0.0284 ± 0.061	1.54 ± 0.096
ACGUGG	-0.532 ± 0.088	1.56 ± 0.11	-0.352 ± 0.032	1.74 ± 0.058
ACGUGU	-0.475 ± 0.012	1.45 ± 0.097	-0.096 ± 0.051	1.69 ± 0.078
CCCUCC	-0.844 ± 0.018	1.78 ± 0.029	-0.75619 ± 0.00069	1.89 ± 0.045
CCCUCA	-0.416 ± 0.038	1.58 ± 0.039	-0.195 ± 0.06	1.73 ± 0.17
ACGAGU	-0.508 ± 0.033	1.43 ± 0.14	-0.229 ± 0.13	1.7 ± 0.11
ACGAGA	-0.604 ± 0.02	1.29 ± 0.12	-0.453 ± 0.01	1.45 ± 0.067
UCUGAU	-0.331 ± 0.024	1.6 ± 0.061	-0.0535 ± 0.0022	1.83 ± 0.14
UCUGAA	-0.341 ± 0.042	1.51 ± 0.079	-0.0714 ± 0.032	1.73 ± 0.099
CCGAGC	-0.204 ± 0.022	1.78 ± 0.059	0.0994 ± 0.021	1.88 ± 0.14
CCGAGA	-0.211 ± 0.078	1.46 ± 0.11	0.0834 ± 0.071	1.66 ± 0.086
GCUGCA	0.156 ± 0.0048	1.77 ± 0.025	0.255 ± 0.059	1.85 ± 0.089
GCUGCG	-1.43 ± 0.31	1.789 ± 0.016	-1.28 ± 0.14	1.87 ± 0.13
GCUCAU	-0.503 ± 0.042	1.66 ± 0.0087	-0.178 ± 0.097	1.78 ± 0.1

Variant	FACS-Seq fitted mean (log10) (cyclic di-GMP [1])	normalized RNA/DNA level without ligand (log10) (cyclic di-GMP [2])	FACS-Seq fitted mean (log10) (cyclic di-GMP [3])	normalized RNA/DNA level with ligand (log10) (cyclic di-GMP [4])
GCGUGU	-0.15 ± 0.054	1.5 ± 0.085	0.114 ± 0.056	1.75 ± 0.083
GCGUGA	-0.266 ± 0.05	1.47 ± 0.068	-0.000275 ± 0.097	1.65 ± 0.088
ACGAUU	-0.694 ± 0.056	1.2 ± 0.13	-0.341 ± 0.036	1.41 ± 0.19
ACGAUG	-0.381 ± 0.017	1.55 ± 0.084	-0.168 ± 0.022	1.72 ± 0.14
CCUGCC	-0.367 ± 0.12	1.79 ± 0.018	-0.0275 ± 0.059	1.89 ± 0.052
GCGGUU	-0.562 ± 0.021	1.6 ± 0.044	-0.254 ± 0.0055	1.75 ± 0.11
ACGGUA	-0.397 ± 0.031	1.37 ± 0.069	-0.0373 ± 0.057	1.57 ± 0.14
ACGGUU	-0.529 ± 0.031	1.22 ± 0.074	-0.237 ± 0.11	1.4 ± 0.1
GCGUUU	-0.452 ± 0.069	1.6 ± 0.026	-0.302 ± 0.06	1.77 ± 0.14
CCGGUU	-0.109 ± 0.11	1.592 ± 0.0094	0.264 ± 0.0069	1.78 ± 0.096
CCGGUG	-0.614 ± 0.039	1.27 ± 0.12	-0.397 ± 0.038	1.46 ± 0.11
CCGGUA	-0.505 ± 0.068	1.36 ± 0.12	-0.223 ± 0.059	1.61 ± 0.087
GCGCGA	-0.455 ± 0.074	1.51 ± 0.12	-0.199 ± 0.081	1.65 ± 0.037
CCGUUG	-0.483 ± 0.093	1.28 ± 0.069	-0.2456 ± 0.00076	1.49 ± 0.1
CCGACA	-0.323 ± 0.017	1.56 ± 0.068	-0.142 ± 0.068	1.74 ± 0.11
CCGGCU	-0.0371 ± 0.0037	1.74 ± 0.033	0.118 ± 0.024	1.89 ± 0.077
GCGGAC	-0.751 ± 0.049	1.33 ± 0.11	-0.511 ± 0.04	1.46 ± 0.045
GCGGAG	-0.301 ± 0.022	1.53 ± 0.13	-0.076 ± 0.067	1.7 ± 0.055
GCGGAA	-0.527 ± 0.013	1.33 ± 0.21	-0.19 ± 0.061	1.54 ± 0.1
GCUGGU	-0.0949 ± 0.014	1.6 ± 0.057	0.119 ± 0.16	1.76 ± 0.099
GCUGGA	-0.599 ± 0.036	1.49 ± 0.085	-0.196 ± 0.038	1.71 ± 0.099
GCUAUG	-0.741 ± 0.034	1.58 ± 0.075	-0.505 ± 0.019	1.72 ± 0.078
GCUAUA	-0.262 ± 0.11	1.55 ± 0.058	-0.134 ± 0.099	1.73 ± 0.11
ACGGGA	-0.467 ± 0.019	1.42 ± 0.16	-0.161 ± 0.068	1.58 ± 0.075
